Assay results as given in PMC7710122.

Assays:
[1] = western blot of cell lysates; settings: glycan changed form; control: MDA/vec
[2] = western blot of β1 in purified sEVs; settings: glycan changed form; control: vec-sEVs

integrin β1: MGAT3 overexpression
expression_or_secretion [1]: no change
localisation_or_trafficking [2]: no change
